Reference: patent US8409836B2, “Treatment of cellulosic material and enzymes useful therein” (Roal Oy, priority 2005, dated 2013)

B1: At EG_40_like: endoglucanase of Acremonium thermophilum ALKO4245, gene At cel45B, amino acid SEQ ID NO: 14 (protein)
chain: MRLPLPTLLALLPYYLEVSAQGASGTGTTTRYWDCCKPSCAWPLKGNSPSPVQTCDKNDRPLNDGGNTKSGCDNGGGAFMCSSQSPWAVNETTSYGWAAVRIAGSTESAWCCACYELTFTSGPVSGKKLIVQATNTGGDLGSNHFDLAIPGGGVGQSNACTNQYGAPPNGWGDRYGGVHSRSDCDSFPAALKAGCYWRFDWFQGADNPSVSFKQVACPAAITAKSGCTRQNDAINETPTGPSTVPTYTASG
B2: At EG_40: endoglucanase of Acremonium thermophilum ALKO4245, gene At cel45A, amino acid SEQ ID NO: 12 (protein)
chain: MRSSPFLRAALAAALPLSAHALDGKSTRYWDCCKPSCGWPGKASVNQPVFSCSADWQRISDFNAKSGCDGGSAYSCADQTPWAVNDNFSYGFAATAIAGGSESSWCCACYALTFNSGPVAGKTMVVQSTSTGGDLGSNQFDLAIPGGGVGIFNGCASQFGGLPGAQYGGISDRSQCSSFPAPLQPGCQWRFDWFQNADNPTFTFQRVQCPSELTSRTGCKRDDDASYPVFNPPSGGSPSTTSTTTSSPSGPTGNPPGGGGCTAQKWAQCGGTGFTGCTTCVSGTTCQVQNQWYSQCL
B3: Ct βG_76: beta-glucosidase of Chaetomium thermophilum ALKO4261, gene Ct cel3A, amino acid SEQ ID NO: 26 (protein)
chain: MALHAFLLLASALLARGALSQPDNVRRAAPTGTAAWDAAHSQAAAAVSRLSQQDKINIVTGVGWGKGPCVGNTNPVYSINYPQLCLQDGPLGIRSATSVTAFTPGIQAASTWDVELIRQRGVYLGQEARGTGVHVLLGPVAGALGKIPHGGRNWEAFGSDPYLAGIAMSETIEGIQSEGVQACAKHYIANEQELNRETMSSNVDDRTMHELYLWPFADAVHSNVASVMCSYNKLNGTWLCENDRAQNQLLKRELGFRGYIVSDWNAQHTTVGSANSGMDMTMPGSDFNGWNVLWGPQLNNAVNSGQVSQSRLNDMVQRILAAWYLLGQNSGYPSINLRANVQANHKENVRAVARDGIVLLKNDGILPLQRPNKIALVGSAAVVNPRGMNACVDRGCNEGALGMGWGSGTVEYPYFVAPYDALRERAQRDGTQISLHASDNTNGVNNAVQGADAAFVFITADSGEGYITVEGHAGDRNHLDPWHNGNQLVQAVAQANKNVIVVVHSVGPVILETILNTPGVRAVVWAGLPSQESGNALVDVLYGLVSPSGKLVYTIAKSPSDYPTSIVRGDDNFREGLFIDYRHFDNARIEPRFEFGFGLSYTNFSYSNLGISSSATAGPATGPTVPGGPADLWNYVATVTATVTNTGGVEGAEVAQLYISLPSSAPASPPKQLRGFVKLKLAPGQSGTATFRLRKRDLAYWDVGRQNWVVPSGRFGVLVGASSRDIRLQGEIVV

Legend:
Assay type in all cases: biochemical
[1] = Hydrolysis with endoglucanase preparations, corn stover; conditions: 48 h, 45° C., pH 5.0
Procedure: (§1) The preparations containing the endoglucanases were compared in hydrolysis studies mixed with the purified CBH/Cel7 and CBH/Cel6 enzymes on several pre-treated substrates. Culture filtrates of T. reesei, containing different cloned endoglucanase enzymes were obtained as described in Example 19. The enzymes were enriched by removing thermolabile proteins from the mixtures by a heat treatment (60° C., 2 h, pH 5) and the supernatant was used for the hydrolysis studies. In addition, pure T. reesei cellulases (purified as described by Suurnäkki et al., 2000) were used in the enzyme mixtures. The endoglucanases used in the experiment were:
Steam exploded corn stover fibre (steam pre-treatment at 210° C. for 5 min), dry matter 31.0% (SECS).
(§2) The endoglucanases to be studied (dosage 840 nkat/g dry matter, based on endoglucanase activity against HEC according to IUPAC, 1987) were used either with cellobiohydrolases of T. reesei (CBHI/Cel7A, 8.1 mg/g d.m. and CBHII/Cel6A, 2.0 mg/g d.m.) or with Thermoascus aurantiacus Cel7A with genetically attached CBD of T. reesei (10.1 mg/g d.m.). Purified (Suurnäkki et al., 2000) EGI (Cel7B) and EGII (Cel5A) of T. reesei were also included in the experiments for comparison. All mixtures were supplemented with additional β-glucosidase from Novozym 188 (to make the total β-glucosidase dosage 560 nkat/g d.w., the relatively high dosage was used to compensate the differences in the background activities of the different EG preparations). Triplicate tubes were incubated in mixing at 45° C. for 48 h and reference samples with inactivated enzymes and corresponding substrates were prepared. The release of hydrolysis products was measured as reducing sugars with DNS method using glucose as standard (Table 31).

[2] = Hydrolysis with endoglucanase preparations, spruce; conditions: 48 h, 45° C., pH 5.0
Procedure: as §1
Washed steam pre-treated spruce fibre (impregnation with 3% SO2 for 20 min, followed by steam pre-treatment at 215° C. for 5 min), dry matter 25.9% (SPRUCE).
as §2

[3] = pH optimum of heterologously produced endoglucanases; conditions: McIlvaine's buffer; for pH optimum: pH range 4.0-8.0, CMC, 10 min, 50° C.
Procedure: (§3) The pH optimum of the heterologously produced endoglucanases was determined in the universal McIlvaine's buffer within a pH range of 4.0-8.0 using carboxymethylcellulose as substrate. As shown in FIG. 6 A the broadest pH range (4.5-6.0) is that of the Acremonium EG—40/Cel45A protein, the optimum being at pH 5.5. The pH optima for the other heterologously produced endoglucanases are pH 5.0-5.5 and 6.0 for Acremonium EG—40_like/Cel45B and Thermoascus EG—28/Cel5A, respectively. The optimal temperature for enzymatic activity of these endoglucanases was determined at the temperature range of 50-85° C. as described above. The highest activity of the enzymes was determined to be at 75° C., 60° C., and 75° C. for the Acremonium EG—40/Cel45A, EG—40 like/Cel45B, and Thermoascus EG—28/Cel5A, respectively (FIG. 6 B).

[4] = Temperature optimum of heterologously produced endoglucanases; conditions: temperature range 50-85° C., CMC
Procedure: as §3

[5] = Endoglucanase activity on carboxymethyl cellulose; conditions: purified endoglucanase, 50° C., procedure of IUPAC 1987
Procedure: The specific activity of the preparations was determined using 4-methylumbelliferyl-β-D-lactoside (MUL), 4-methylumbelliferyl-β-D-cellobioside (MUG2) or 4-methylumbelliferyl-β-D-cellotrioside (MUG3) as substrate (van Tilbeurgh et al., 1988) in 0.05 M sodium citrate buffer pH 5 at 50° C. for 10 min. Endoglucanase and xylanase activities were determined by standard procedures (according to IUPAC, 1987) using carboxymethyl cellulose (CMC) and birch glucuronoxylan (Bailey et al., 1992) as substrates. Specific activity against Avicel was calculated on the basis of reducing sugars formed in a 24 h reaction at 50° C., pH 5.0, with 1% substrate and 0.25 μM enzyme dosage. The protein content of the purified enzyme preparations was measured according to Lowry et al., 1951. To characterize the end products of hydrolysis, soluble sugars liberated in 24 h hydrolysis experiment, as described above, were analysed by HPLC (Dionex). Purified cellobiohydrolase I (CBHI/Cel7A) of Trichoderma reesei was used as a reference.
(§4) Acremonium thermophilum ALKO4245 was grown as described in Example 1. The culture supernatant was incubated at 70° C. for 24 hours after which it was concentrated by ultrafiltration. The pure endoglucanase was obtained by sequential purification with hydrophobic interaction and cation exchange chromatography followed by gel filtration. The endoglucanase activity of the fractions collected during purification was determined using carboxymethyl cellulose (CMC) as substrate (procedure of IUPAC 1987). Protein content was measured by BioRad Assay Kit (Bio-Rad Laboratories) using bovine serum albumine as standard.
as §4, with “Thermoascus aurantiacus ALKO4242 was” for “Acremonium thermophilum ALKO4245 was”, “1.” for “1. The culture supernatant was incubated at 70° C. for 24 hours after which it was concentrated by ultrafiltration.”, “and anion” for “and cation”

[6] = Temperature optimum of heterologously produced β-glucosidases; conditions: temperature range 50-85° C., 60 min
Procedure: (§5) The pH optimum of the heterologously produced β-glucosidases was determined in the universal McIlvaine's buffer within a pH range of 3.0-8.0 using 4-nitrophenyl-β-D-glucopyranoside as substrate. The pH optima for the Acremonium βG—101, Chaetomium βG—76, and Thermoascus βG—81 are pH 4.5, 5.5, and 4.5, respectively (FIG. 7 A). The optimal temperature for enzymatic activity of these β-glucosidases was determined at the temperature range of 50-85° C. as described above. The highest activity of the enzymes was determined to be at 70° C., 65° C., and 75° C. for the Acremonium βG—101/Cel3A, Chaetomium βG—76/Cel3A, and Thermoascus βG—81/Cel3A, respectively (FIG. 7 B).

[7] = pH optimum of heterologously produced β-glucosidases; conditions: McIlvaine's buffer, pH range 3.0-8.0, 4-nitrophenyl-β-D-glucopyranoside
Procedure: as §5

[8] = with CBHI and CBHII of T. reesei
[9] = with T. aurantiacus Cel7A + Tr CBD

| Molecule | Hydrolysis products as reducing sugars, SECS [1, 8] [mg/mL] | Hydrolysis products as reducing sugars, SPRUCE [2, 8] [mg/mL] | pH optimum [3] | Temperature of highest activity [4] [°C] | Hydrolysis products as reducing sugars, SECS [1, 9] [mg/mL] | Hydrolysis products as reducing sugars, SPRUCE [2, 9] [mg/mL] | pH range (broadest) ([3]; CMC) | Specific activity on CMC [5] [nkat/mg] | Temperature of highest activity [6] [°C] | pH optimum [7] |
| --- | --- | --- | --- | --- | --- | --- | --- | --- | --- | --- |
| B1 | 4.8 | 4.5 | 5.0-5.5 | 60 |  |  |  |  |  |  |
| B2 | 4.3 | 4.9 | 5.5 | 75 | 4.0 | 4.8 | 4.5-6.0 | 450 |  |  |
| B3 |  |  |  |  |  |  |  |  | 65 | 5.5 |
